{"source": "paper PMC3790753", "molecular_target": "stratifin (14-3-3 σ) (UniProt P31947)", "assay": "anti-myc IP, anti-stratifin blot", "conditions": "reference: wild-type Pkp-3-myc; sites S285"}
{"substance": "plakophilin-3 (from UniProt Q9Y446) Pkp-3-myc S285A", "values": [{"measurement": "binding against the reference", "result": "lost"}]}
